{"source": "paper PMC10397247", "key": {"[1]": {"target": "T1, 4H626-bH", "T1 chain": "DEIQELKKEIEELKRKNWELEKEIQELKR", "test": "two-hybrid library CCNG1;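 further: natural log of median RNA to DNA barcode read ratio; higher means stronger binding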"}, "[2]": {"target": "T2, 4H591-bH", "T2 chain": "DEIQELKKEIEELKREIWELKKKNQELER", "test": "two-hybrid library CCNG1"}, "[3]": {"target": "T3, 4H906-bH", "T3 chain": "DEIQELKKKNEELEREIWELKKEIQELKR", "test": "two-hybrid library CCNG1"}, "[4]": {"target": "T4, 4H953-AA", "T4 chain": "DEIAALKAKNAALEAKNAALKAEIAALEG", "test": "two-hybrid library CCmax"}, "[5]": {"target": "T5, 4H967-AA", "T5 chain": "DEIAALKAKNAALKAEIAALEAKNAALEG", "test": "two-hybrid library CCmax", "settings": "mean of both orientations"}, "[6]": {"target": "T6, 4H688-AA", "T6 chain": "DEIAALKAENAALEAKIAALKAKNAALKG", "test": "two-hybrid library CCmax"}, "[7]": {"target": "T7, 4H963-AA", "T7 chain": "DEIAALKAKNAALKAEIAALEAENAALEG", "test": "two-hybrid library CCmax", "settings": "mean of both orientations"}, "[8]": {"target": "T8, 4H3364-bN", "T8 chain": "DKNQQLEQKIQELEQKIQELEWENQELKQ", "test": "two-hybrid library CCNG1"}, "[9]": {"target": "T9, 4H796-bN", "T9 chain": "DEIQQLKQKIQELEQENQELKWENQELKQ", "test": "two-hybrid library CCNG1"}, "[10]": {"target": "T10, 4H3297-bN", "T10 chain": "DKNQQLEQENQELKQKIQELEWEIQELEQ", "test": "two-hybrid library CCNG1"}, "[11]": {"target": "T11, 4H730-bN", "T11 chain": "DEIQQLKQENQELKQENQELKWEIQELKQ", "test": "two-hybrid library CCNG1"}, "[12]": {"target": "T12, 4H949-bN", "T12 chain": "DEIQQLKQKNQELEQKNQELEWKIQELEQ", "test": "two-hybrid library CCNG1"}, "[13]": {"target": "T13, 4H56-bN", "T13 chain": "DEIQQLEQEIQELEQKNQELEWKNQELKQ", "test": "two-hybrid library CCNG1"}, "[14]": {"target": "T14, 4H932-bN", "T14 chain": "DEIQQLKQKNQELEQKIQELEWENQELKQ", "test": "two-hybrid library CCNG1"}, "[15]": {"target": "T15, 4H3381-bN", "T15 chain": "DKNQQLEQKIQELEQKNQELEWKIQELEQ", "test": "two-hybrid library CCNG1"}, "[16]": {"target": "T16, 4H349-bN", "T16 chain": "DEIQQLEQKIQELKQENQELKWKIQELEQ", "test": "two-hybrid library CCNG1"}}}
{"binder": "DEIQELKKEIEELKREIWELKKKNQELER", "note": "[4H591-bH]", "values": [{"measurement": "interaction score", "setting": "[1]", "value": -0.53}, {"measurement": "interaction score", "setting": "[2]", "value": 1.58}, {"measurement": "interaction score", "setting": "[3]", "value": -0.784}]}
{"binder": "DEIAALKAKNAALEAKNAALKAEIAALEG", "note": "[4H953-AA]", "values": [{"measurement": "interaction score", "setting": "[4]", "value": -1.02}, {"measurement": "interaction score", "setting": "[5]", "value": -1.73}]}
{"binder": "DEIAALKAENAALEAKIAALKAKNAALKG", "note": "[4H688-AA]", "values": [{"measurement": "interaction score", "setting": "[6]", "value": -1.23}, {"measurement": "interaction score", "setting": "[7]", "value": 1.46}]}
{"binder": "DKNQQLEQENQELKQKIQELEWEIQELEQ", "note": "[4H3297-bN]", "values": [{"measurement": "interaction score", "setting": "[8]", "value": -0.913}, {"measurement": "interaction score", "setting": "[9]", "value": -0.556}, {"measurement": "interaction score", "setting": "[10]", "value": -0.0469}, {"measurement": "interaction score", "setting": "[11]", "value": -0.799}, {"measurement": "interaction score", "setting": "[12]", "value": -1.29}, {"measurement": "interaction score", "setting": "[13]", "value": -0.798}, {"measurement": "interaction score", "setting": "[14]", "value": -1.21}, {"measurement": "interaction score", "setting": "[15]", "value": -1.01}, {"measurement": "interaction score", "setting": "[16]", "value": -2.11}]}
